Source: article doi:10.1101/2022.08.30.505748 (bioRxiv, 2022)
Residue numbers refer to the chain shown, from its start. Names and notes keep the numbering of the source. Read-outs that look alike come from different tables or passages of the source.

Legend:
[1] = biological target: activated caspase-3 (WT), His6-tagged, RED-tris-NTA labelled (UniProt P42574); experiment: MST
[2] = biological target: activated caspase-7, His6-tagged, RED-tris-NTA labelled (UniProt P55210); experiment: MST
[3] = biological target: activated caspase-9, His6-tagged, RED-tris-NTA labelled (UniProt P55211); experiment: MST
[4] = biological target: Alexa555-SMAC (WT), a.a. 56-239 with a C-terminal cysteine (UniProt Q9NR28); experiment: fluorescence polarisation
[5] = biological target: BIRC6 (Baculoviral IAP repeat-containing protein 6), full-length, wild-type, tag removed (UniProt Q9NR09); experiment: SEC-MALS; settings: remark: other sources report otherwise
[6] = biological target: BIRC6 (Baculoviral IAP repeat-containing protein 6), full-length, wild-type, tag removed (UniProt Q9NR09); experiment: cryo-EM structure; settings: remark: other sources report otherwise
[7] = biological target: BIRC6 (Baculoviral IAP repeat-containing protein 6), full-length, wild-type, tag removed (UniProt Q9NR09); experiment: cryo-EM structure; settings: remark: other sources report otherwise; remark: listed apart in the source
cryo-EM structure = biological target: the molecule itself; experiment: cryo-EM structure
[8] = biological target: T1, BIRC6 (Baculoviral IAP repeat-containing protein 6), full-length, wild-type, tag removed (UniProt Q9NR09 1-4857); experiment: fluorescence polarisation
T1 sequence (Q9NR09 whole entry): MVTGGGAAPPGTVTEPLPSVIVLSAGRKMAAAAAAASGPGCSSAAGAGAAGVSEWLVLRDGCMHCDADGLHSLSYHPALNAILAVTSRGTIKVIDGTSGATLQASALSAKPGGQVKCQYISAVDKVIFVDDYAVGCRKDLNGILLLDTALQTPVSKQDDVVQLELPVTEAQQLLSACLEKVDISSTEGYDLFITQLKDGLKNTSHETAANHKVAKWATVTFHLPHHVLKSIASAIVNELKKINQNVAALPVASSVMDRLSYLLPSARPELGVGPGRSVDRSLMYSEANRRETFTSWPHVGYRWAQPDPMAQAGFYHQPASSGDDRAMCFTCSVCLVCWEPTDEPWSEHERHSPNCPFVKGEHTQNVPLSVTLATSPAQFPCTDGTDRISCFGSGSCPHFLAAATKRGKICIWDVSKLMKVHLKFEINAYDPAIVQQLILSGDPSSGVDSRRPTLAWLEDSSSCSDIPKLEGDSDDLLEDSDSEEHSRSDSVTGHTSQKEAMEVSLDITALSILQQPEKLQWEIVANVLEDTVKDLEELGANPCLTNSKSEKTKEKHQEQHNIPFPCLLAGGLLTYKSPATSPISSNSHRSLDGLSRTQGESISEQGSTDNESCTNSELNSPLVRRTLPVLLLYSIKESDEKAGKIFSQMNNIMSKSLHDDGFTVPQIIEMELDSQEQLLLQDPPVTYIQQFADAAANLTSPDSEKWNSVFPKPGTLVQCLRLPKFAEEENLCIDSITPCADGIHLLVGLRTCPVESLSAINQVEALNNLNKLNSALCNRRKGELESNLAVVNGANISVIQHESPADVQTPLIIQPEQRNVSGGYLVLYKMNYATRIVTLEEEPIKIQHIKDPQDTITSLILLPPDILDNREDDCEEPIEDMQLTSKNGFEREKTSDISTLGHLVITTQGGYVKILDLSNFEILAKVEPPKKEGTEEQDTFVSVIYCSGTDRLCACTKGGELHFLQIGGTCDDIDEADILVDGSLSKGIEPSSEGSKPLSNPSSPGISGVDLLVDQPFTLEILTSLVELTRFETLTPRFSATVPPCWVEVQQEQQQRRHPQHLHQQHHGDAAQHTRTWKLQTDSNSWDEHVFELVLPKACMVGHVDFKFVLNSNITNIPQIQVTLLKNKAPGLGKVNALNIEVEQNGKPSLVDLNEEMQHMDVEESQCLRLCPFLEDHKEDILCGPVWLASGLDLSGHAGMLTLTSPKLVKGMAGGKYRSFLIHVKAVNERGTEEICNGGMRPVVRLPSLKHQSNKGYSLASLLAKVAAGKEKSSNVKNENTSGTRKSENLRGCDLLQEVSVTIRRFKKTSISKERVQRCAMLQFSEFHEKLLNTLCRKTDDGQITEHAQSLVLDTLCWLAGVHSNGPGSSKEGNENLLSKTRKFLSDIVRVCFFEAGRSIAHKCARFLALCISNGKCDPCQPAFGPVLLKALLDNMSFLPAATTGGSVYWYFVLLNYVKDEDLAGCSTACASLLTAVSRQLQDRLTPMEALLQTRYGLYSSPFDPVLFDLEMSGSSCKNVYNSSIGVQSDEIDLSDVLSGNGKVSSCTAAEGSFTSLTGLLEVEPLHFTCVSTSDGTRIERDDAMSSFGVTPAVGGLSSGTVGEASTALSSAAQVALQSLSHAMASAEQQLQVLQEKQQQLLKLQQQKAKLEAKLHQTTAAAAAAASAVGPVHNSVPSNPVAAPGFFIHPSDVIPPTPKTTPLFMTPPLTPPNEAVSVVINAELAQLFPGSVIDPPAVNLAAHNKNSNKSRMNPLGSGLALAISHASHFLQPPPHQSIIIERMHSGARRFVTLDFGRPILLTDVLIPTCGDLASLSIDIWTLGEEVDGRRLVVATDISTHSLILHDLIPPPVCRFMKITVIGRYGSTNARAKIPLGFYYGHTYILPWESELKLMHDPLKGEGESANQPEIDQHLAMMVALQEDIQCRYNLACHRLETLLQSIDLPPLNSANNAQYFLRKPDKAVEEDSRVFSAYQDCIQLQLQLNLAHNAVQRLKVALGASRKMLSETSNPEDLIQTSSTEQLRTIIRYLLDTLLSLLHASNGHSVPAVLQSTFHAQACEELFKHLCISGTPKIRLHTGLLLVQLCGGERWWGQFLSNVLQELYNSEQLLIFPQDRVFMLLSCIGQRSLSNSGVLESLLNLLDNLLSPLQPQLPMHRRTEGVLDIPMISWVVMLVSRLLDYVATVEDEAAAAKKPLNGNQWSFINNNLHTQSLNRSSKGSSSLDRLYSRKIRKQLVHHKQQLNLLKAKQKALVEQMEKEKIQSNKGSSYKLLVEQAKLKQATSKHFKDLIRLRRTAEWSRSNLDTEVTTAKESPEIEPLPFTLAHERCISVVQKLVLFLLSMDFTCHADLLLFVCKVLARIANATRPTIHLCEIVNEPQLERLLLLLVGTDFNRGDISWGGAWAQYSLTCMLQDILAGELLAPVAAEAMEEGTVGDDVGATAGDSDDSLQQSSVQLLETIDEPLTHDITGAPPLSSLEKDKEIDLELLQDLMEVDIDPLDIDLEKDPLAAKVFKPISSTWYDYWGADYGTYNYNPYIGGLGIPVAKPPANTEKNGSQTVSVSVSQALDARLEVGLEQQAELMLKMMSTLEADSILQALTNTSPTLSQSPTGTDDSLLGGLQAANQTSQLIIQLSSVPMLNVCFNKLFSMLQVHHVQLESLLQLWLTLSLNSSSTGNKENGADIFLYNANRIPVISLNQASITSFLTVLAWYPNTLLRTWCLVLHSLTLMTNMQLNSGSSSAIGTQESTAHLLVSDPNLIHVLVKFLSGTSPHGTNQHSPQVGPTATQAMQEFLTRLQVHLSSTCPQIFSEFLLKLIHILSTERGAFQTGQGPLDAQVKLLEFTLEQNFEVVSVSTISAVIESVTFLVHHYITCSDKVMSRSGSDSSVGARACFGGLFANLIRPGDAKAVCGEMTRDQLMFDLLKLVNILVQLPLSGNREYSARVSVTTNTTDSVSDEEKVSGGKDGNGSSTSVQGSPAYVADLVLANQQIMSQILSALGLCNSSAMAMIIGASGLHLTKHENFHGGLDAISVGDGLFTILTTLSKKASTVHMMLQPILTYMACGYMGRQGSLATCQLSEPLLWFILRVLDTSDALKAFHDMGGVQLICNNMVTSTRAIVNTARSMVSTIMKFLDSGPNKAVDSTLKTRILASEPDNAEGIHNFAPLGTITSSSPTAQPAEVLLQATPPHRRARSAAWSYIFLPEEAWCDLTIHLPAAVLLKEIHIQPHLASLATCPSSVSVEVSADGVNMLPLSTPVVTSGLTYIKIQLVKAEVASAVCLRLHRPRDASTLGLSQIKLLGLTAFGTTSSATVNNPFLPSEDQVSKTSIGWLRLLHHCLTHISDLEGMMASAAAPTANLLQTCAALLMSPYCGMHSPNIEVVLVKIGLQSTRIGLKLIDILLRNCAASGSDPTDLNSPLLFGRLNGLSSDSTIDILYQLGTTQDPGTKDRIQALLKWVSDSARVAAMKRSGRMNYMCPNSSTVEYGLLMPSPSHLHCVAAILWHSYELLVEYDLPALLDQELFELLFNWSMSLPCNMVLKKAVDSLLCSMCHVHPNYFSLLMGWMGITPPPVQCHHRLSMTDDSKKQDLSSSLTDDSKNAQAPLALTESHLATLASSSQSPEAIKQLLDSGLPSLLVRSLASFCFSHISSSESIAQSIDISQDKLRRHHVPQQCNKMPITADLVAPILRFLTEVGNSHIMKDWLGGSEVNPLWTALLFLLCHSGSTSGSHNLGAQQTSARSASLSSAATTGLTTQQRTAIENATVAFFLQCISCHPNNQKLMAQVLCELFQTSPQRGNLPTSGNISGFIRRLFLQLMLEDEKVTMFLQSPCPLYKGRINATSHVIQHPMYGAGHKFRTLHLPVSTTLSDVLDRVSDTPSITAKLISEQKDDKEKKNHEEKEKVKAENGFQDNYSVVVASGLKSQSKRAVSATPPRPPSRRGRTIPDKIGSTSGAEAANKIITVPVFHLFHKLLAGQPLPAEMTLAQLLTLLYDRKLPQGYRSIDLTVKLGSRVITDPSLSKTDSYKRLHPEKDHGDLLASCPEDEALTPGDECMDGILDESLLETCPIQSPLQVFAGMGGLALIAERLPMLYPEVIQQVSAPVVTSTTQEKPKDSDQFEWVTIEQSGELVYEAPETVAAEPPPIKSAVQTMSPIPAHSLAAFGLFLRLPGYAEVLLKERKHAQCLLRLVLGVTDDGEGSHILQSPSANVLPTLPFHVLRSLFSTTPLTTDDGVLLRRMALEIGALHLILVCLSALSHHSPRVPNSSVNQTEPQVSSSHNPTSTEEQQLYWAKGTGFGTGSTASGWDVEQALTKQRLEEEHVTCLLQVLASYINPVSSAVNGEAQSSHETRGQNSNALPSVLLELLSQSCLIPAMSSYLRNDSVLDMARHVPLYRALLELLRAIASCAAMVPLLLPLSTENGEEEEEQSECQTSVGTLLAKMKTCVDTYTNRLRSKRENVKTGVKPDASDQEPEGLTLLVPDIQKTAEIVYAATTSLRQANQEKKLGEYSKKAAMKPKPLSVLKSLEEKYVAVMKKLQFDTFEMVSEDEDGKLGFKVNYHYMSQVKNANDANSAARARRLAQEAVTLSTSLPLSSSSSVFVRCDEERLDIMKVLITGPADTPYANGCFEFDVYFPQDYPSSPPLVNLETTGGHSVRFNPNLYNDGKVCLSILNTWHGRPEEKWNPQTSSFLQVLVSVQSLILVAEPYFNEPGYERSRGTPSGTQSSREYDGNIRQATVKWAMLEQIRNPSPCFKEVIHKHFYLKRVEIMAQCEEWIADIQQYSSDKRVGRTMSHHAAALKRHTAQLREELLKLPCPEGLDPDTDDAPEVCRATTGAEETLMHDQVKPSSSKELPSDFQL

[9] = biological target: T1, BIRC6 (Baculoviral IAP …); experiment: fluorescence polarisation; remark: listed apart in the source

activated caspase-3 (WT), His6-tagged, RED-tris-NTA labelled, sequence (P42574 whole entry): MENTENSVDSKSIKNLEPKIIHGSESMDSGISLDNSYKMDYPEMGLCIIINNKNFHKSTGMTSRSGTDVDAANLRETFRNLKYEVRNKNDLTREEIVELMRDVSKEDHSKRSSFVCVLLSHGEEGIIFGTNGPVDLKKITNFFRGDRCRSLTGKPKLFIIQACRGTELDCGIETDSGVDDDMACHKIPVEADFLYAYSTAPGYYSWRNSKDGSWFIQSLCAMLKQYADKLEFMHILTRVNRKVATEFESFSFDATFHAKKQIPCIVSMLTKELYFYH

Work on “BIRC6 (Baculoviral IAP repeat-containing protein 6), full-length, wild-type, tag removed (from UniProt Q9NR09 1-4857) (enzyme)” yielded a Kd [1] of 8.9 nM, a Kd [2] of 17.1 nM and a Kd [3] of 46.4 nM.

In the case of “BIRC6 (Baculoviral IAP repeat-containing protein 6), full-length, wild-type, tag removed, Q9NR09 1-4857”, the fold greater affinity than for monomeric SMAC (V81D) [4] is reported as > 10 fold, the stoichiometry N [5] is reported as 2 and the stoichiometry N [6] is reported as 2. The stoichiometry N [7] was 2.

B1: SMAC (second mitochondria-derived activator of caspase), a.a. 56-239, wild-type, unlabelled (natural protein)
chain: AVPIAQKSEPHSLSSEALMRRAVSLVTDSTSTFLSQTTYALIEAITEYTKAVYTLTSLYRQYTSLLGKMNSEEEDEVWQVIIGARAEMTSKHQEYLKLETTWMTAVGLSEMAAEAAYQTGADQASITARNHIQLVKLQVEEVHQLSRKAETKLAEAQIEELRQKTQEEGEERAESEQEAYLRED
B1 was tested, and the “stoichiometry N” value (cryo-EM structure) was 2, the IC50 [8] was 8.3 nM and the Kd [8] was ~0.6 nM.

B2: Alexa555-SMAC (WT), a.a. 56-239 with a C-terminal cysteine (natural protein)
chain: AVPIAQKSEPHSLSSEALMRRAVSLVTDSTSTFLSQTTYALIEAITEYTKAVYTLTSLYRQYTSLLGKMNSEEEDEVWQVIIGARAEMTSKHQEYLKLETTWMTAVGLSEMAAEAAYQTGADQASITARNHIQLVKLQVEEVHQLSRKAETKLAEAQIEELRQKTQEEGEERAESEQEAYLREDC
modifications: Alexa Fluor 555 on the C-terminal cysteine
B2: binds [9].

B3: Cy3-labelled SMAC N-terminal peptide, AVPIAQKSEC(Cy3)-Am (peptide)
peptide: AVPIAQKSEC
modifications: Cy3 on the C-terminal cysteine; C-terminal amide
B3 gave a Kd [9] of 35.6 ± 3 nM.

B4: Alexa 555 monomeric SMAC (V81D), a.a. 56-239 with a C-terminal cysteine (natural protein)
chain: B2 chain with V26D
modifications: Alexa Fluor 555 on the C-terminal cysteine
B4 gave a Kd [9] of 12.1 ± 1.5 nM.
